The record followed here is the domain aggregation screens of Martell et al. (2025).
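Also: 20 min heating vs room temperature control held 20 min.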

The nature of the series: soluble fraction after stress (log2 fold change); higher = more stays soluble; pooled small domains, quantitative proteomics. The conditions noted are these: stress: 75 degC.
Regarding “HMDEETVALQKAIHSLPPKQQAVFNMRYYDEMSFREIADANETTESSAKANYHFAKAKIIEQMKR”, the “soluble fraction (log2)” value was determined as 0.113.
With “HMDEILHHPSYRAIYEYMLDHKHVKTKDIAALLNVKEPRARQLLKEMIDKHFIIALGSNRNREYELL” the figure was -0.94; with “HMDEKSGWLHLAPHEGALRAALYAEHAVQEERTAPDGSQWLRLVLREKHYHQIQSKYNRRLTLHTQPDPS”, -2.58; with “HMDENDPYEILEIDRLASDDQVKAKYRALIRENHPDVLMAKGVPQEFIDLANRKMAVINAAYDRIEKEREF”, 0.122.
Take “HMDEPGAGYKWREDVLLRVMASHGIEESLRDDFVRHAVGFDNDDNMYLKKVEIENAAAAWVAN”: the “soluble fraction (log2)” value is -0.359.
Under “HMDETELLLQKAIATLPDKQRVVFNLKYFDEMKYEEMSELLETSVGALKASYHLAVKKIEQFFHDA” stands -0.555; under “HMDETYRRQLEDLAREHGAEYLHGILREVDPASAEAIHANNIKRVIRALEFYHLSGKKISEHNETERQ”, -0.12; under “HMDEVHYLADKERGTTWEEILIHADRDIKFLSLSATINNKNEFLEWLVSLRGTTSLIHSSTRPIPLEI”, 0.231.
With “HMDEVLDQFVRGQIYGYIRANPGDIYSSIRDNLGLKNGVTTYHLDVLAREEYVYSEIDGTNRRFYPSGWEE” the figure was -2.77; with “HMDEVVVVERGGVQITMSEIDAKIMELPVDVRPSYLDSPERLQNFVSNLLLEKQAAQLKSQY”, -0.142.
Under “HMDEWDPAILYVGLDYEDAAQIATRLATSGVPYRLSPDGTMITVPDDQVNNMRLTLAGEGFPH” stands -0.0325.
On to “HMDEYFNPETVVHYLRELFDTYRENGGNPFEWFHSTFESVNLNPQNYRKDLITTIEKALIEWIEIFEKQ”, for which the “soluble fraction (log2)” value is -0.697.
Take “HMDFDPDVPSREDILQAFRDSKPPLTVNALISEFGLSRDASIVGLERRMGAMQRDGQLEQTPSGWQLSV”: the “soluble fraction (log2)” value was -0.164.
In the case of “HMDFFVLVGAYKTPDEAETIRAKIAFSGLDSSVSHGNDGRYRVRIGPFHSEGDARKAQSTLRANDIPGQII”, the “soluble fraction (log2)” value was -1.01.
Under “HMDFGMPEELQKKLDKMPALKAAFEALTPGRQRGYIFYFSQPKQSKTRELRIEKSIEQIMNGKGLND” stands -0.414.
Under “HMDFIEYIISEESKGLRADQAISMENDKFSRSLIQKWIKKGRVLVNGRKIKPKDIVNLNDKITINPEESIN” stands -0.36; under “HMDFITPYEIEQGQYEGAELYEDGKFEEAFSLSSIAAQRGMKTAQYLLGIMFLKGEYVDQSLAIGMAW”, -0.52.
With “HMDFPYISGIEIAAIKNREFIRIETDKAQEIAIALDKSGIPFSARFSDAEMVLTYDGSYKEQVEDIIAKA” the figure was -0.705; with “HMDFSERLARAMSLAGYTQGRLAKEVGMAQSSVNKLLNGANGSRKTVEIASVLGVRPEWLSTGAGEML”, -0.546; with “HMDFSSRLKDERKRLKLSQAQLGEAGGVSKDAQLNYENGSRSPSASYLELIAREGVDVQFLLTGKRS”, 0.155.
With “HMDFSYTVGDIDEPIDSRGNSVIMLRKLAWGSNAEKLEIRRWIIDIDSERANKGVTFLTEEGPHNLVRV”, the “soluble fraction (log2)” value was 0.272.
With “HMDFTISDADFHRLVQFIQQNYGVALSKKRQLISSRLSHSLRELGYKDFRTFLEHLFSTRDPADLELVLNK” the figure was -1.59; with “HMDFYVILGVDRAASLSDVKRAYRRLARKHHPDINPGDPESDAFFMRVTEAYETLVDPDRRQEYDEHG”, -0.75; with “HMDGEFINLKNRAGTEIEARILNYQNGQVKLERKDGVTFVVSISMFDAKSVIAINHKIAEIIDT”, -2.28.
With “HMDGIDALEPLMRRVFEALPQRRSMTIERAAVAAGLDEESVKIALVRLQLEGYVANDERGWHRSKSPH” the figure was -2.48; with “HMDGIGLRVRMIREGVGLTQKQLAEHLGMQRTALVQVEAGSRKLSASELIGVARFFNITVEQFLDPEK”, -3.5; with “HMDGIPVPDVKGTVEAEATATLKNSGFEVTKTQDFSDTVEAGKVISQNPAGGSSAASGSSVTLVISQGPN”, -0.0786.
With “HMDGISANAVKALIESLIAGEDKRKPLSDQAMSDRLALQGIVLARRTVAKYREELNFPPAHQRKQK” the figure was -1.41.
“HMDGLPYPEAAEEPIAQVARNLGMDATRVSIALQEAKLIFRNLDETLAEIAANNGTTPQVVYDAIRHLEPP”: the “soluble fraction (log2)” value was -0.248.
Under “HMDGLTEQQADDILAFISIKGTNAEVLAALENYAGRNETFDTGLSELKVVASNLAAFGMPEENFVVDL” stands 0.283; under “HMDGPGDRLLIAIQENSMTQKKFAQLIGMSPNGLNSIIKGKKRLSRVLAIATERLTGVRADWILQNEQPK”, -0.0913; under “HMDGQPLSERQQEILRWVAEGLSNREIGERLNITPNTVRDHLSEVMRRLEVSNRTSAVSTAFHLGLLP”, -0.0654.
For “HMDGRIRFRHAALHDPDVAARLHDYLTTSLPGVRSARVNSQTGSLLLEYDPEVLDRSTLLDLAARAESLL”, the “soluble fraction (log2)” value was -0.493.
Under “HMDGRSLSHATLEEIRIRAVQRVEAGESPEVVVKALGFSRPRIYEWLALYREGGLEALRAKPV” stands -1.1.
In the case of “HMDGSEYAGTVRLGDGTLQPVPRFETSNSETPKYLYLVMDVTHDPPVYILEHESAELKSVLGGLVLIGSYS”, the “soluble fraction (log2)” value came out at 0.0157.
With “HMDGTVRGKTTFQELLDWGVPQERIEAVLGGPIPAPGVVIKDYVTAQGKEFSAVRDALQAEVDAVLK” the figure was 0.144; with “HMDGVLLDHLDGFVTTRRGVEAWLEQPTSFNKPSILLVAADGESTRRAIPSIAFGYDFASRHDIPAYDAG”, -0.44; with “HMDGVPPAGSRIRLTVSTQVGDKEFEGTLVPPAGVDLLTLKLANGYNLSHSIADVREVVLIEEGLQGEEP”, -0.191.
With “HMDGVSLLFKLMETLPEQQKTILHLRDVEQLEFAEIAKITNTSQANVRVALSRARKKIKDLLLKQY” the figure was -2.52.
Under “HMDGVYLKSLKQTEQHIHWSGYAQSNAWVSTLMRNLDASPWFESPLLIEIKAATINNSRSNEFDLNVRL” stands 0.0974; under “HMDGYTVYTNWGSDTNVARSDQQIQSQIPQLSGATIVGVWTKPIATGGTSYKIRYRTNSGAFTEIDVDQ”, -0.256; under “HMDHKTKLQEVLQKSGDVFIEYRLIKEEGPAHERIFWIEVYVDDQLIGTGQGKSKKLAEQAAAENALAALE”, -1.21.
Regarding “HMDIEHREMKLQKLVITADSPLVGKTLKESNVRQRYNFMVVGVEEGQKNLTMINPNRRFEVGDIVWVVGEE”, the “soluble fraction (log2)” value was -0.743.
Under “HMDIFGREAEVEQILQEVRFGDDPHYRLSIGILPVTGHAGAGKTALVRFIFHHEVARAEFTVRMWVHV” stands 0.154; under “HMDIGKNIQTIRYANKLTQDQVIAKLNLMGISMSKSTYAKLETNRMNIKVSELVALAKIFHTDINAF”, -2.62; under “HMDIGTYTVTASALNIRQYPTASSAKTGSYPNGSIVTIYEYLTDGSWGRTDDGWISMNYVSRRY”, -1.93.
Consider “HMDIHSEEYILGQNIRKYRLRLGWSQADLSNAVDIDRADISKYENGAKGIMSSTLLRKFAKALGVSMDALM”, for which the “soluble fraction (log2)” value was -3.32.
With “HMDILPRMVASEMRAVGVPPERMTREEKGTVIRNLMNAGIHQMKGAVVEIARQLHLSEPTVYRYIKREKG” the figure was -0.664.
With “HMDINMELGKNIRRLRKLNNLTQQSLANQMNRSKTLIALWEKGERDPSSIDLKRLSEIFNVRADDIIG” the figure was -0.799; with “HMDIRMLLSDREEEIMILLSKGLSISEAANRMQIGQASAATYLNRARRKLKAETVRQAVAIWTGD”, -1.87; with “HMDISAFDTEFIISKFGGIRPMAQKLGVPVSTVQGWKQRQTIPQNRMGDILEAAKNYNLELTP”, -0.112.
Under “HMDISPAAKQRLALIQPLLEKNAEAITDRKLRNAVAKDIANNQNTTVRRVLRLYYRYLATGQVM” stands 0.192; under “HMDIVIPIQVKNVSSGEVLDFPSIRAAARDLKFPKTTISLGVRYAGEKAYKGFVMRYRSDDPWPIVQES”, -2.
Turning to “HMDIYLDEVNRKILHLLSQGIKTRSLREYINLSMSAIEKRKKHMKELFLVEDGKDETLLNEARNKGF”, the “soluble fraction (log2)” value is -1.88.
With “HMDIYLTAFKTTSNQVTLNGIARSDLIISEFMRDIRDAKLFGEPVLQVIQNKNLNNVQARVFELVVPL” the figure was 0.115; with “HMDKATMRWEQIEKFLETHPYIMNADVRALFNVSAATANRILATLTTEGKLVKYREGGHWAYKY”, -1.1.
Under “HMDKELILLWDRVKSKVWQMDIQDSQVANWFQRNYHLTVRLRDFDPPVPPDKFTAEQLASFIKDIERHT” stands -2.41; under “HMDKGMQTMIDNLHKNTGKTLEEWIALVNRANFAKHGEVISFLKEKHGLTHGYANLVAHRLK”, 0.863; under “HMDKINQEAIEDEAGLWLAKIDGRQLAQEEVRELIAWMRRSDFHREYLITLARQWDGMAALNKLATLFP”, -2.08.
With “HMDKLFNRQTLGGVELTQKQIEDLNAGKAIFVEGMQRKDGEVFSSYVKLDEATGRPSYTRYNPDSP” the figure was 0.933; with “HMDKLSYALGLSMGHNFLGSGIKSLNVEDFAKGVEAVYKQEKPEISFDEAKKIINEFFSNLQDEIAE”, -1.01.
Turning to “HMDKNLQYADTPKGKLREYIKNLPNGSTVNRQKLAEEFGIKKQSMGTVTEVFQEFPDKNFKFVNP”, the “soluble fraction (log2)” value was -0.0476.
As for “HMDKPVIEDVSFDDLAYMVGERVIIRTHLRSTRDGELKSFNRAGILVSLRNRPGMELEIPRSTVASAQVVW”, the “soluble fraction (log2)” value is -2.39.
Under “HMDKQEKIHKKKIIILEALKRLLQNDVYSRITVQAVADEAGFSKGGLLHYFPTKEEMYIEFMEY” stands -0.103; under “HMDKRYYYRILGLVGEPTRDQIEAAYETRIAKLRSSDYGDDPLYARRKISEVTMAYKVLTGS”, -1.56.
With “HMDKSFLQSLHLIALGIVKNQMDPWELVNGWVEYYLKNKDKYIDHPNLKAVAVLKMKGLFIDHFRKS” the figure was -5.84; with “HMDKSHYEELGVSRTATHAEIRRAYRHLMRTLHPDSNDGRVDAVRITKVNEAWNVLSQSSSRNAYDKSQV”, -0.235.
Under “HMDKTTIKNEQKKQILIFAEMNLFFKAKDVAELLGLQASRARYLLQELVKDGKIQGIGNNKGRKYQLI” stands -0.729; under “HMDKVEQLMQNPVIQEKMSEGDRELLRNASLVVLGRLEDDGSIIQRFVELFGEEAYERLKSELM”, -0.0149; under “HMDLDIGSVLQASRGEKKISLRQLAERTGLTASMLSQIERNLVNPSINTLKVIAAALEIPMYKFFMG”, -1.17.
